# Where a chain is given by its changes, count along the chain named.
# B1: 108 (protein)
# chain: STAIAQEGAAPAAILHPEKWPRPATQRLIDPAVEKRVDALLKQLSVEEKVGQVIQGDIGTITPEDLRKYPLGSILAGGNSGPNGDDRAPPKEWLDLADAFYRVSLEKRPGHTPIPVLFGIDAVHGHGNIGSATIFPHNIALGATRDPELLRRIGEVTAVEMAATGIDWTFAPALSVVRDDRWGRTYEGFSEDPEIVAAYSAAIVEGVQGKFGSKDFMAPGRIVASAKHFLADGGTDQGRDQGDARISEDELIRIHNAGYPPAIDAGVLTVMASFSSWQGIKHHGHKQLLTDVLKGQMGFNGFIVGDWNAHDQVPGCTKFNCPTSLIAGLDMYMAADSWKQLYENTLAQVKDGTIPMARLDDAVRRILRVKVLAGLFEKPAPKDRPGLPGLETLGSPEHRAVGREAVRKSLVLLKNDKGTLPLSPKARVLVAGDGADNIGKQSGGWTISWQGTGNRNDEFPGATSILGGIRDAVADAGGSVEFDVAGQYKTKPDVAIVVFGEEPYAEFQGDVETLEYQPDQKQDLALLKKLKDQGIPVVAVFLSGRPMWVNPELNASDAFVAAWLPGTEGGGVADVLFTDKAGKVQHDFAGKLSYSWPRTAAQTTVNRGDADYNPLFAYGYGLTYKDKSKVGTLPEESGVP
# B2: 105 (protein)
# chain: STAIAQEGAAPAAILHPEKWPRPATQRLIDPAVEKRVDALLKQLSVEEKVGQVIQGDIGTITPEDLRKYPLGSILAGGNSGPNGDDRAPPKEWLDLADAFYRVSLEKRPGHTPIPVLFGIDAVHGHGNIGSATIFPHNIALGATRDPELLRRIGEVTAVEMAATGIDWTFAPALSVVRDDRWGRTYEGFSEDPEIVAAYSAAIVEGVQGKFGSKDFMAPGRIVASAKHFLADGGTDQGRDQGDARISEDELIRIHNAGYPPAIDAGVLTVMASFSSWQGIKHHGHKQLLTDVLKGQMGFNGFIVGDWNAHDQVPGCTKFNCPTSLIAGLDMYMAADSWKQLYENTLAQVKDGTIPMARLDDAVRRILRVKVLAGLFEKPAPKDRPGLPGLETLGSPEHRAVGREAVRKSLVLLKNDKGTLPLSPKARVLVAGDGADNIGKQSGGWTISWQGTGNRNDEFPGATSILGGIRDAVADAGGSVEFDVAGQYKTKPDVAIVVFGEEPYAEFQGDVETLEYQPDQKQDLALLKKLKDQGIPVVAVFLSGRPMWVNPELNASDAFVAAWLPGTEGGGVADVLFTDKAGKVQHDFAGKLSYSWPRTAAQTTVNRGDADYNPLFAYGYGLTYKDKSKVGTLP
# B3: 107 (protein)
# chain: STAIAQEGAAPAAILHPEKWPRPATQRLIDPAVEKRVDALLKQLSVEEKVGQVIQGDIGTITPEDLRKYPLGSILAGGNSGPNGDDRAPPKEWLDLADAFYRVSLEKRPGHTPIPVLFGIDAVHGHGNIGSATIFPHNIALGATRDPELLRRIGEVTAVEMAATGIDWTFAPALSVVRDDRWGRTYEGFSEDPEIVAAYSAAIVEGVQGKFGSKDFMAPGRIVASAKHFLADGGTDQGRDQGDARISEDELIRIHNAGYPPAIDAGVLTVMASFSSWQGIKHHGHKQLLTDVLKGQMGFNGFIVGDWNAHDQVPGCTKFNCPTSLIAGLDMYMAADSWKQLYENTLAQVKDGTIPMARLDDAVRRILRVKVLAGLFEKPAPKDRPGLPGLETLGSPEHRAVGREAVRKSLVLLKNDKGTLPLSPKARVLVAGDGADNIGKQSGGWTISWQGTGNRNDEFPGATSILGGIRDAVADAGGSVEFDVAGQYKTKPDVAIVVFGEEPYAEFQGDVETLEYQPDQKQDLALLKKLKDQGIPVVAVFLSGRPMWVNPELNASDAFVAAWLPGTEGGGVADVLFTDKAGKVQHDFAGKLSYSWPRTAAQTTVNRGDADYNPLFAYGYGLTYKDKSKVGTLPEESGVPAEAR
# B4: 106 (protein)
# chain: STAIAQEGAAPAAILHPEKWPRPATQRLIDPAVEKRVDALLKQLSVEEKVGQVIQGDIGTITPEDLRKYPLGSILAGGNSGPNGDDRAPPKEWLDLADAFYRVSLEKRPGHTPIPVLFGIDAVHGHGNIGSATIFPHNIALGATRDPELLRRIGEVTAVEMAATGIDWTFAPALSVVRDDRWGRTYEGFSEDPEIVAAYSAAIVEGVQGKFGSKDFMAPGRIVASAKHFLADGGTDQGRDQGDARISEDELIRIHNAGYPPAIDAGVLTVMASFSSWQGIKHHGHKQLLTDVLKGQMGFNGFIVGDWNAHDQVPGCTKFNCPTSLIAGLDMYMAADSWKQLYENTLAQVKDGTIPMARLDDAVRRILRVKVLAGLFEKPAPKDRPGLPGLETLGSPEHRAVGREAVRKSLVLLKNDKGTLPLSPKARVLVAGDGADNIGKQSGGWTISWQGTGNRNDEFPGATSILGGIRDAVADAGGSVEFDVAGQYKTKPDVAIVVFGEEPYAEFQGDVETLEYQPDQKQDLALLKKLKDQGIPVVAVFLSGRPMWVNPELNASDAFVAAWLPGTEGGGVADVLFTDKAGKVQHDFAGKLSYSWPRTAAQTTVNRGDADYNPLFAYGYGLTYKDKSKVGTLPEE
# B5: 104 (protein)
# chain: STAIAQEGAAPAAILHPEKWPRPATQRLIDPAVEKRVDALLKQLSVEEKVGQVIQGDIGTITPEDLRKYPLGSILAGGNSGPNGDDRAPPKEWLDLADAFYRVSLEKRPGHTPIPVLFGIDAVHGHGNIGSATIFPHNIALGATRDPELLRRIGEVTAVEMAATGIDWTFAPALSVVRDDRWGRTYEGFSEDPEIVAAYSAAIVEGVQGKFGSKDFMAPGRIVASAKHFLADGGTDQGRDQGDARISEDELIRIHNAGYPPAIDAGVLTVMASFSSWQGIKHHGHKQLLTDVLKGQMGFNGFIVGDWNAHDQVPGCTKFNCPTSLIAGLDMYMAADSWKQLYENTLAQVKDGTIPMARLDDAVRRILRVKVLAGLFEKPAPKDRPGLPGLETLGSPEHRAVGREAVRKSLVLLKNDKGTLPLSPKARVLVAGDGADNIGKQSGGWTISWQGTGNRNDEFPGATSILGGIRDAVADAGGSVEFDVAGQYKTKPDVAIVVFGEEPYAEFQGDVETLEYQPDQKQDLALLKKLKDQGIPVVAVFLSGRPMWVNPELNASDAFVAAWLPGTEGGGVADVLFTDKAGKVQHDFAGKLSYSWPRTAAQTTVNRGDADYNPLFAYGYGLTYKDKSKVGTLPEESGVPAEARQNAGIY
# B6: 96 (protein)
# chain: STAIAQEGAAPAAILHPEKWPRPATQRLIDPAVEKRVDALLKQLSVEEKVGQVIQGDIGTITPEDLRKYPLGSILAGGNSGPNGDDRAPPKEWLDLADAFYRVSLEKRPGHTPIPVLFGIDAVHGHGNIGSATIFPHNIALGMTRDPELLRRIGEVTAEEMAATGIDWTFAPALSVVRDDRWGRTYEGFSEDPEIVAAYSAAIVEGVQGKYGSKDFMAPGRIVASAKHFLADGGTDQGRDQGDARISEDELIRIHNAGYPPAIDAGVLTVMASFSSWQGIKHHGHKQLLTDVLKGQMGFNGFIVGDWNAHDQVPGCTKFNCPTSLIAGLDMYMAADSWKQLYENTLAQVKDGTIPMARLDDAVRRILRVKVLAGLFEKPAPKDRPGLPGLETLGSPEHRAVGREAVRKSLVLLKNDKGTLPLSPKARVLVAGDGADNIGKQSGGWTISWQGTGNRNDEFPGATSILGGIRDAVADAGGSVEFDVAGQYKTKPDVAIVVFGEEPYAEFQGDVETLEYQPDQKQDLALLKKLKDQGIPVVAVFLSGRPMWVNPELNASDAFVAAWLPGTEGGGVADVLFTDKAGKVQHDFAGKLSYSWPRTAAQTTVNRGDADYNPLFAYGYGLTYKDKSKVGTLPEESGVPAEARQNAGIYFRAGALRLPGRFL
# B7: 101 (protein)
# chain: B6 chain with M143A, E159V, A162T, Y211F, I222A, S225C
# B8: 98 (protein)
# chain: B6 chain with T2A, M143A, E159V, A162T, A201P, Y211F, I222A
# B9: 102 (protein)
# chain: B6 chain with M143A, E159V, A162T, Y211F, S225C, A573S
# B10: 99 (protein)
# chain: B6 chain with N128K, M143A, E159V, Y211F, I222S, S225C
# B11: 97 (protein)
# chain: B6 chain with E159V, E642A, A643P
# B12: 103 (protein)
# chain: STAIAQEGAAPAAILHPEKWPRPATQRLIDPAVEKRVDALLKQLSVEEKVGQVIQGDIGTITPEDLRKYPLGSILAGGNSGPNGDDRAPPKEWLDLADAFYRVSLEKRPGHTPIPVLFGIDAVHGHGNIGSATIFPHNIALGATRDPELLRRIGEVTAVEMAATGIDWTFAPALSVVRDDRWGRTYEGFSEDPEIVAAYSAAIVEGVQGKFGSKDFMAPGRIVASAKHFLADGGTDQGRDQGDARISEDELIRIHNAGYPPAIDAGVLTVMASFSSWQGIKHHGHKQLLTDVLKGQMGFNGFIVGDWNAHDQVPGCTKFNCPTSLIAGLDMYMAADSWKQLYENTLAQVKDGTIPMARLDDAVRRILRVKVLAGLFEKPAPKDRPGLPGLETLGSPEHRAVGREAVRKSLVLLKNDKGTLPLSPKARVLVAGDGADNIGKQSGGWTISWQGTGNRNDEFPGATSILGGIRDAVADAGGSVEFDVAGQYKTKPDVAIVVFGEEPYAEFQGDVETLEYQPDQKQDLALLKKLKDQGIPVVAVFLSGRPMWVNPELNASDAFVAAWLPGTEGGGVADVLFTDKAGKVQHDFAGKLSYSWPRTAAQTTVNRGDADYNPLFAYGYGLTYKDKSKVGTLPEESGVPAEARQN
# Assay: High throughput cellobiose assay: fold improvement in cellobiase activity of CelA variants over a control enzyme (Tables 2A-2D, 3, 5, 6, 7)
# Type: biochemical
# Conditions: 3.3 g/l cellobiose, 55° C. and pH 6.0
row,Molecule,Fold improvement over Control Variant No. 5 from Table 2A
1,B1,++ (++ = 1.1 to 6 fold improvement over control Variant No. 2)
2,B2,++ (++ = 1.1 to 6 fold improvement over control Variant No. 2)
3,B3,++ (++ = 1.1 to 6 fold improvement over control Variant No. 2)
4,B4,++ (++ = 1.1 to 6 fold improvement over control Variant No. 2)
5,B5,++ (++ = 1.1 to 6 fold improvement over control Variant No. 2)
6,B6,++ (++ = 1.1 to 6 fold improvement over control Variant No. 2)
7,B7,+++ (+++ = 6 to 13 fold improvement over control Variant No. 2)
8,B8,+++ (+++ = 6 to 13 fold improvement over control Variant No. 2)
9,B9,++ (++ = 1.1 to 6 fold improvement over control Variant No. 2)
10,B10,+++ (+++ = 6 to 13 fold improvement over control Variant No. 2)
11,B11,+++ (+++ = 6 to 13 fold improvement over control Variant No. 2)
12,B12,++ (++ = 1.1 to 6 fold improvement over control Variant No. 2)
